# Patent US20220025029A1 (Regeneron, published 2022)
# Target: T1, natural Fel d1 (Indoor Biotech, #NA-FD1-2) (cat, UniProt P30438 23-92; P30440 18-109)
# T1 construct: Bought natural heterodimeric glycoprotein, chains linked by disulfide bonds; also called nFel d1; nFel d 1
# Assay: SPR (Biacore), mAb captured, natural Fel d1 injected, 25 C;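 also: rate constants obtained by fitting association and dissociation phases to a one-to-one binding model, with Kd and half-life derived from those rate constants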
# T1 sequence (P30438 other isoform, or with tags, fused parts or gaps, chain 1 of 2): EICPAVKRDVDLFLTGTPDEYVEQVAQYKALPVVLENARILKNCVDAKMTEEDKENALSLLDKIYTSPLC
# T1 sequence (P30440 18-109, chain 2 of 2): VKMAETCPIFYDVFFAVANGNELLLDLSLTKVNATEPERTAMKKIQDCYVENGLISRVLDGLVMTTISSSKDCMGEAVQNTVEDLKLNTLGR
Binder,Kd [nM],koff [s⁻¹],kon [M⁻¹ s⁻¹],t1/2 [min]
"H2M1236N (antibody, mouse IgG2, V domains shown, chimeric: human variable domains, mouse IgG2 Fc (H2M prefix)) VH: QVQLQESGPGLVKPSETLSLTCTVSGGSISNYYWSWIRQPPGKGLEWIGYIYYSGRTNYNPSLKSRVTISVDTSKNQFSLKLRSVTAADTAVYYCARHRITRTADSFDYWGQGTLVTVSS VL: DIQMTQSPSSLSASVGDRVTITCQASQDITNYLNWYQQKPGKAPKLLIYDASNLETGVPSRFSGSGSGTDFTFTISSLQPEDVATFYCHQYGDLPYTFGQGTKLEIK",4.55,0.00142,312000,8
"H4H2797P (antibody, human IgG4, V domains shown, human IgG4 Fc (H4H prefix)) VH: QVQLVESGGGVVLPGRSLRLSCAASGFTFSSYLMYWVRQAPGKGLEWVAVIWYDGSNKFYGDSVKGRFTISRDNSKNTLYLQMNSLRAEDTAVYYCARDNGNSGYEDSWNAFDIWGQGTMVTVSS VL: DIQMTQSPSSLSASVGDRVTITCRASQDIYNYLAWFQQKPGKAPKSLIYAASSLQTGVPSQFSGSGSGTDFTLTISSLQPEDFATYYCQQYNNYPFTFGPGTKVDIK",35.4,0.00713,202000,2
"H1M1230N (antibody, V domains shown, chimeric: human variable domains, mouse constant domains (H1M prefix, mouse Fc)) VH: EVQLVESGGGLVQPGGSLRLSCTASGFIFSNFWMTWVRQAPGKGLEWVANIKQDGSETYCVDSVKGRFTISRDHAKNSLFLQMNSLRAEDTAVYYCARGAGTIYYYGMDVWGQGTTVIVSS VL: DIQMTQSPSSVSASVGDRLTITCRASQDISSWLTWYQQKPGKAPNLLIYAASGLQSGVPSRFSGSGSGTDFTLTISNLQPEDFATYYCQQANSFPLTFGQGTRLEIK",3.37,0.000869,258000,13
"H1M1241N (antibody, V domains shown, chimeric: human variable domains, mouse constant domains (H1M prefix, mouse Fc)) VH: EVQLVESGGGLVKPGGSLRLSCAASGFTFSSYSMNWVRQAPGKGLEWVSSISSRSSYIYYADSVKGRFTISRDNAKNSLYLQMNSLRAEDTAVYYCARDHIVVVPGASYYYYGMDVWGQGTTVTVSS VL: DIQMTQSPSSLSASVGDRVTITCRASQGIRNDLGWYQQKPGKAPKRLISAASSLQSGVPSRFSGSGSGTEFTLTISSLQPEDFATYYCLQHNSYPLTFGGGTKVEIK",3.63,0.000662,182000,17
"H2M1233N (antibody, mouse IgG2, V domains shown, chimeric: human variable domains, mouse IgG2 Fc (H2M prefix)) VH: QVVLVESGGGVVQPGRSLRLSCAASGFTFSSYGMHWVRQAPGKGLEWVAVIWYDGSNKYYVDSVKGRFTISRDNSNNTIYLQMNSLRAEDTAVYYCARSLIPVAGTDPIFGYWGQGTLVTVSS VL: DIQMTQSPSTLSASVGDRVTITCRASQSVSSWLAWYQQKPGKAPKLLIFKASGLESGVPFRFSGSGSGTEFTLTISSLQPDDFATYYCQQYNTYSPTFGQGTKVEIK",1.4,0.000353,253000,33
"H2M1242N (antibody, mouse IgG2, V domains shown, chimeric: human variable domains, mouse IgG2 Fc (H2M prefix)) VH: EVQLVESGGGLVRPGGSLRLSCAASGFTFTSYAMNWVRQAPGKGLEWVSSISSYSSYIYIADSVKGRFTLSRDNAKNSLYLQMHSLRPEDTAVYFCAREGYSAYSYFDFWGRGTLVTVSS VL: DIQMTQSPSTLSASVGDRVTITCRASQSVISWLAWYQQKPGKAPKLLIHRASSLESGVPSRFSGSGSGTEFTLTISGLQPDDFATYYCQQYNTYFPTFGQGTKVEVK",3.14,0.000604,192000,19
"H2M1237N (antibody, mouse IgG2, V domains shown, chimeric: human variable domains, mouse IgG2 Fc (H2M prefix)) VH: QVVLVESGGGVVQPGRSLRLSCAASGFTFSSYGMHWVRQAPGKGLEWVAVIWYDGSIKYYADSVKGRFTISRDNSNNTIYLQMNSLRAEDTAVYYCARALIPVAGTDPIFGYWGQGTLVTVSS VL: DIQMTQSPSTLSASVGDRVTITCRASQSVSSWLAWYQQKPGKAPKLLIFKTSGLESGVPFRFSGSGSGTEFTLTISSLQPDDFATYYCQQYNTYSPTFGQGTKVEIK",0.982,0.000276,281000,42
"H1M1234N (antibody, V domains shown, chimeric: human variable domains, mouse constant domains (H1M prefix, mouse Fc)) VH: QVQLQQSGPGLVKSSQTLSLTCAISGDSVSSNSVAWNWIRQSPSRGLEWLGRTYYRSKWYNDYAVSVKSRININPDTSKNHFSLQLNSVTPEDTAVYFCARAWNWYYLDYWGQGTLVTVSS VL: not shown",18.3,0.00679,371000,2

# Continued, values first:
Kd [nM],koff [s⁻¹],kon [M⁻¹ s⁻¹],t1/2 [min],Binder
0.65,0.0015,2.31e+06,8,"H4H2597B (antibody, human IgG4, V domains shown, human IgG4 Fc (H4H prefix)) VH: EVQLVESGGGLVQPGGSLRLSCAVSGFTFSNYAMNWVRQAPGKGLEWVSVISDSGRSTYYADSVKGRFTISRDNSKNTLYLQMNSLRAEDTAVYFCAKRYNWNLHYFDYWGQGTTVTVSS VL: EIVLTQSPDFQSVTPKEKVTITCRASQSIGGSLHWYQQKPDQSPKLLIKYASQSFSGVPSRFSGSGSGTDFTLTINSLEAEDAATYYCLQSSSLRTFGQGTKVEIKR"
0.765,0.000707,924000,16,"H4H2606B (antibody, human IgG4, V domains shown, human IgG4 Fc (H4H prefix)) VH: EVQLVESGGGLVKPGGSLRLSCAASGFTFSDYYMNWIRQAPGKGLEWVSYISSSGNSIYYADSVKGRFTISRDNAKNSLFLQMSSLRAEDTAVYYCARDGRYNDRRRGYYWGQGTLVTVSS VL: EIVMTQSPDFQSVTPKEKVTITCRASQSIGSSLHWYQQKPDQSPKLLIKYASQSFSGVPSRFSGSGSGTDFTLTINSLEAEDAATYYCLQSSSLRTFGQGTKVEIKR"
0.878,0.000965,1.1e+06,12,"H4H2594S (antibody, human IgG4, V domains shown, human IgG4 Fc (H4H prefix)) VH: EVQLVESGGGLVKPGGSLRLSCAASGFTFSDYYMNWIRQAPGKGLEWVSYISSSGSSIYYADSVKGRFTISRDNAKNSLYLLMNSLRAEDTAVYYCARDGKYNSSPGDYWGQGTLVTVSS VL: DIQMTQSPSSLSASVGDRVTIACRASQGISNYLAWFQQKPGKAPKSLIYAASSLQSGVPSKFSGSGSGTDFTLTISSLQPEDFATYYCQQYNSYPLTFGGGTKVEIKR"
0.307,0.00091,2.97e+06,13,"H4H2607B (antibody, human IgG4, V domains shown, human IgG4 Fc (H4H prefix)) VH: EVQLVESGGGLVKPGGSLRLSCAASGFTFSDYYMNWIRQAPGKGLEWISYLSSSGSATYYADSVKGRFTISRDNAKNSLYLQMNSLRAEDTAVYYCARDGKYNTVAGDYWGQGTTVTVSS VL: DIQLTQSPSSLSASVGDRVTITCRASQGIRNDLGWYQQKPGKAPKRLIYAASSLQSGVPSRFSGSGSGTEFTLTISSLQPEDFATYYCLQHNSYPYTFGQGTKVEIKR"

# Target: T1, natural Fel d1 (Indoor Biotech, …)
# Assay: SPR (Biacore 2000), mAb captured via anti-human Fc, nFel d 1 injected, 25 C
600 nM nFel d 1 Bound (RU),Kd [nM],koff [s⁻¹],kon [M⁻¹ s⁻¹],t1/2 [min],Binder
35,0.25,0.000712,2.85e+06,16,"H4H3467D (bispecific antibody, V domains shown, Bi-specific with a common kappa light chain on both Fab arms; human IgG4 Fc by the H4H prefix) VH 1: EVQLVESGGGLAQPGGSLRLSCAASGFTFNNYAMTWVRQAPGKGLDWVSAISDSGRSTFSADSVKGRFTISRDNSKNTLYLQMDSLRAEDTALYYCAKHRNWNYPVFDYWGQGTLVTVSS VH 2: EVQLVESGGGLVKPGGSLRLSCAASGFTFRNYNINWVRQAPGKGLEWVSLISGSSSYIYYADSVKGRFTVSRDNAKNSLYLQMNSLRAEDTAVYYCARRTLSYYVMDVWGQGTTVTVSS VL: DIQLTQSPSFLSASVGDRVTITCWASQGISSYLAWYQQKPGKAPKLLIYSASTLQSGVPSRFSGSGSGTEFTLTISSLQPEDFATYYCQQLNSYPFTFGPGTKVDIK"
30,0.347,0.00062,1.79e+06,19,"H4H8751D (bispecific antibody, V domains shown, Bi-specific with a common kappa light chain on both Fab arms; human IgG4 Fc by the H4H prefix) VH 1: EVQLVESGGGLVQPGGSLRLSCAASGFTFSSYAMSWVRQAPGKGLEWVSAISGRGYNADYADSVKGRFTISRDNSKNTLYLQMNSLRAEDTAVYYCAKLEYFDYWGQGTLVTVSS VH 2: EVQLVESGGGLVKPGGSLRLSCAASGFTFRNYNINWVRQAPGKGLEWVSLISGSSSYIYYADSVKGRFTVSRDNAKNSLYLQMNSLRAEDTAVYYCARRTLSYYVMDVWGQGTTVTVSS VL: DIQMTQSPSTLSASVGDRVTITCRASQSISSWLAWYQQKPGKAPKLLIYKASSLESGVPSRFSGSGSGTDFTLTISSLRPEDFATYYCQQYNSYPLTFGGGTKVEIK"
